Usually IC50 stands for the midpoint of a concentration-inhibition curve.

We go through two molecules from patent US12043658B2, “Conjugate comprising an active MMP-9-binding peptide” (Daiichi Sankyo Company, Limited, priority 2017, dated 2024).

Experiment [1] has as its target T1, human MMP-9 enzyme active domain E402Q mutant (Homo sapiens, UniProt P14780, E402Q).
T1 construct: an enzyme active domain E402Q mutant (Phe107-Pro449, E402Q) and a His tag; made in house; host or cells: FreeStyle 293F
Briefly: Size exclusion chromatography binding to hMMP-9(cat)_E402Q_His6. Conditions: 25 μM enzyme, 75 μM inhibitor. On the procedure: (§1) With M91005 and M91011 prepared in (1-2), active hMMP-9(cat)_His6 prepared in (2-1-4), and hMMP-9(cat)_E402Q_His6 prepared in (11-3), the binding activity was evaluated by size exclusion chromatography. 25 μM active hMMP-9(cat)_His6 or hMMP-9(cat)_E402Q_His6 and 75 μM active MMP-9-binding peptide or hTIMP-1 (in-house preparation) were mixed, and reacted at 4° C. for 1 hour. After the reaction, 10 μl of the reaction solution was analyzed by size exclusion chromatography. The chromatographic conditions were as follows.
(§2) Detection: Absorbance (280 nm)
(§3) When only active hMMP-9(cat)_His6 was analyzed, the peak of active hMMP-9(cat)_His6 was detected at a retention time of 7.0 minutes (FIG. 53(A)). When a mixture reaction solution of active hMMP-9(cat)_His6 and hTIMP-1 or active MMP-9-binding peptides M91005 or M91011 was analyzed, the retention time of the peak of active hMMP-9(cat)_His6 was shifted to the high molecular weight side (FIG. 53(A)). […] When only human MMP-9(cat)_E402Q_His6 was analyzed, the peak of hMMP-9(cat)_E402Q_His6 was detected at a retention time of 7.1 minutes (FIG. 53(B)). When a mixed reaction solution of human MMP-9(cat)_E402Q_His6 and hTIMP-1 was analyzed, the retention time of the peak of hMMP-9(cat)_E402Q_His6 was shifted to the high molecular weight side (FIG. 53(B)). […] In contrast, when a mixture reaction solution of hMMP-9(cat)_E402Q_His6 and the active MMP-9-binding peptide M91005 or M91011 was analyzed, the retention time of the peak of the hMMP-9(cat)_E402Q_His6 was not changed (FIG. 53(B)). It should be noted that when only hTIMP-1 or the active MMP-9-binding peptides M91005, M91011 was analyzed, the peak of hTIMP-1 was detected at a retention time of 7.3 minutes, the peak of the active MMP-9-binding peptide M91005 was detected at a retention time of 8.2 minutes, and the peak of the active MMP-9-binding peptide M91011 was detected at a retention time of 8.1 minutes (FIG. 53(C)).

The target of experiment [2] is T2, wild-type active hMMP-9(cat) (Homo sapiens, UniProt P14780).
T2 construct: and an enzyme active domain (Phe107-Pro449) was constructed; His tag (before the propeptide) (N, cleaved yes); made in house; host or cells: FreeStyle 293F
T2 sequence (P14780 107-449): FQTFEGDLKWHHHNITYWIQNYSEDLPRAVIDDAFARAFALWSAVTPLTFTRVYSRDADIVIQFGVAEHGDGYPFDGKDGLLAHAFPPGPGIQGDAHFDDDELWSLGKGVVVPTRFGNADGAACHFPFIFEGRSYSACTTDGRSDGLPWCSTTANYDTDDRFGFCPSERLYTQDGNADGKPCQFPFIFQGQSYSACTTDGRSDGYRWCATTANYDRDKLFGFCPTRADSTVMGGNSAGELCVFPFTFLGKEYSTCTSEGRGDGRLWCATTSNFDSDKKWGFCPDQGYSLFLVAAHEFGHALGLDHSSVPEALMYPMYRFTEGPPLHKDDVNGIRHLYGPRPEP
The experiment can be described thus: Inhibition of wild-type active hMMP-9(cat), substrate peptide. It is filed as biochemical. The conditions noted are these: wild-type active hMMP-9(cat) 1 nM, substrate peptide 10 μM. On the procedure:
(§4) The substrate peptide MOCAc-KPLGL-A2pr(Dnp)-AR-NH2 (SEQ ID NO: 30 (FIG. 46)) (PEPTIDE […], INC.; 3226-v) was dissolved in water to 1 mM, then diluted with an assay buffer (50 mM Tris-HCl, 200 mM NaCl, 2 mM CaCl2, pH7.5) and used at the final concentration of 10 μM. 50 μl each of the active hMMP-9(cat) diluted with the assay buffer or the active hMMP-9(cat)_XnnnY and the active MMP-9-binding peptide or sc-311438 (Santa Cruz Biotechnology, Inc.) were mixed, and reacted at 37° C. for 1 hour. Then, 100 μl of the substrate diluted with the assay buffer was added, and fluorescence signals (excitation 328 nm/emission 393 nm) were measured with Enspire (PerkinElmer, Inc.). The final concentrations of the active hMMP-9(cat) and the active hMMP-9(cat)_XnnnY were at 1 nM, and the final concentrations of the active MMP-9-binding peptide and sc-311438 were at 0.5 to 330 nM. For reactions and measurements, a ProteoSave™ SS96F black plate (Sumitomo Bakelite Co., Ltd.) was used.
(§5) The 50% inhibitory concentration (IC50) of each binding peptide was calculated using GraphPad Prism (version 5.0; GraphPad Software), by calculating the substrate peptide degradation rate of the active MMP-9-binding peptide at each concentration, and taking the degradation rate at an inhibitor concentration of 0 nM as 100% (FIGS. 54(A) and 54(B)). […]

A further experiment concerns the target T3, active hMMP-9(cat)_Y179A (Homo sapiens, UniProt P14780, Y179A).
T3 construct: of the enzyme active domain (Phe107-Pro449) were constructed; His tag (before the propeptide) (N, cleaved yes); made in house; host or cells: FreeStyle 293F
The experiment can be described thus: Inhibition of human MMP-9 mutant Y179A. Format: biochemical. Here is the method:
as §4, §5

The next experiment deals with T4, active hMMP-9(cat)_D185A (Homo sapiens, UniProt P14780, D185A).
T4 construct: of the enzyme active domain (Phe107-Pro449) were constructed; His tag (before the propeptide) (N, cleaved yes); made in house; host or cells: FreeStyle 293F
T4 sequence (P14780 107-449 D185A): as the sequence (P14780 107-449) above, with D79A counted along it
Briefly: Inhibition of human MMP-9 mutant D185A. Format: biochemical. On the procedure:
as §4, §5

A further experiment deals with T5, active hMMP-9(cat)_F192A (Homo sapiens, UniProt P14780, F192A).
T5 construct: of the enzyme active domain (Phe107-Pro449) were constructed; His tag (before the propeptide) (N, cleaved yes); made in house; host or cells: FreeStyle 293F
T5 sequence (P14780 107-449 F192A): as the sequence (P14780 107-449) above, with F86A counted along it
Briefly: Inhibition of human MMP-9 mutant F192A. It is filed as biochemical. Here is the method: as §4, §5

In another experiment the target is T6, active hMMP-9(cat)_P193A (Homo sapiens, UniProt P14780, P193A).
T6 construct: of the enzyme active domain (Phe107-Pro449) were constructed; His tag (before the propeptide) (N, cleaved yes); made in house; host or cells: FreeStyle 293F
T6 sequence (P14780 107-449 P193A): as the sequence (P14780 107-449) above, with P87A counted along it
Briefly: Inhibition of human MMP-9 mutant P193A. It is filed as biochemical. On the procedure: as §4, §5

Another experiment deals with T7, active hMMP-9(cat)_Y393A (Homo sapiens, UniProt P14780, Y393A).
T7 construct: of the enzyme active domain (Phe107-Pro449) were constructed; His tag (before the propeptide) (N, cleaved yes); made in house; host or cells: FreeStyle 293F
T7 sequence (P14780 107-449 Y393A): as the sequence (P14780 107-449) above, with Y287A counted along it
The experiment can be described thus: Inhibition of human MMP-9 mutant Y393A. Format: biochemical. On the procedure:
as §4, §5

For a further experiment, the target named is T8, active hMMP-9(cat)_L397A (Homo sapiens, UniProt P14780, L397A).
T8 construct: of the enzyme active domain (Phe107-Pro449) were constructed; His tag (before the propeptide) (N, cleaved yes); made in house; host or cells: FreeStyle 293F
T8 sequence (P14780 107-449 L397A): as the sequence (P14780 107-449) above, with L291A counted along it
The experiment can be described thus: Inhibition of human MMP-9 mutant L397A. It is filed as biochemical. On the procedure:
as §4, §5

The next experiment deals with T9, active hMMP-9(cat)_V398A (Homo sapiens, UniProt P14780, V398A).
T9 construct: of the enzyme active domain (Phe107-Pro449) were constructed; His tag (before the propeptide) (N, cleaved yes); made in house; host or cells: FreeStyle 293F
T9 sequence (P14780 107-449 V398A): as the sequence (P14780 107-449) above, with V292A counted along it
The experiment can be described thus: Inhibition of human MMP-9 mutant V398A. It is filed as biochemical. Here is the method:
as §4, §5

A further experiment concerns the target T10, active hMMP-9(cat)_M422I (Homo sapiens, UniProt P14780, M422I).
T10 construct: of the enzyme active domain (Phe107-Pro449) were constructed; His tag (before the propeptide) (N, cleaved yes); made in house; host or cells: FreeStyle 293F
The experiment can be described thus: Inhibition of human MMP-9 mutant M422I. It is filed as biochemical. On the procedure:
as §4, §5

Another experiment has as its target T11, active hMMP-9(cat)_Y423A (Homo sapiens, UniProt P14780, Y423A).
T11 construct: of the enzyme active domain (Phe107-Pro449) were constructed; His tag (ahead of the propeptide in the precursor) (N, cleaved yes); made in house; host or cells: FreeStyle 293F
Briefly: Inhibition of human MMP-9 mutant Y423A. It is filed as biochemical. On the procedure: as §4, §5

A further experiment addresses T12, active hMMP-9(cat)_R424T (Homo sapiens, UniProt P14780, R424T).
T12 construct: of the enzyme active domain (Phe107-Pro449) were constructed; His tag (ahead of the propeptide in the precursor) (N, cleaved yes); made in house; host or cells: FreeStyle 293F
Briefly: Inhibition of human MMP-9 mutant R424T. It is filed as biochemical. On the procedure: as §4, §5

Experiment [3] deals with active human MMP-9 enzyme active domain (Homo sapiens, UniProt P14780). The experiment can be described thus: Size exclusion chromatography binding to active hMMP-9(cat)_His6. Details: an enzyme active domain (Phe107-Pro449) and a His tag; made in house; host or cells: FreeStyle 293F. The conditions noted are these: 25 μM enzyme, 75 μM inhibitor. Here is the method:
as §1, §2, §3
In general terms: In gel filtration, larger molecules generally elute earlier.

The next experiment concerns the target T13, active hMMP-9(cat)_F110A (Homo sapiens, UniProt P14780, F110A).
T13 construct: of the enzyme active domain (Phe107-Pro449) were constructed; His tag (before the propeptide) (N, cleaved yes); made in house; host or cells: FreeStyle 293F
The experiment can be described thus: Inhibition of human MMP-9 mutant F110A. Format: biochemical. On the procedure:
as §4, §5

The target of another experiment is T14, active hMMP-9(cat)_L187A (Homo sapiens, UniProt P14780, L187A).
T14 construct: of the enzyme active domain (Phe107-Pro449) were constructed; His tag (before the propeptide) (N, cleaved yes); made in house; host or cells: FreeStyle 293F
T14 sequence (P14780 107-449 L187A): as the sequence (P14780 107-449) above, with L81A counted along it
Briefly: Inhibition of human MMP-9 mutant L187A. Format: biochemical. On the procedure:
as §4, §5

In another experiment the target is T15, active hMMP-9(cat)_Q199G (Homo sapiens, UniProt P14780, Q199G).
T15 construct: of the enzyme active domain (Phe107-Pro449) were constructed; His tag (before the propeptide) (N, cleaved yes); made in house; host or cells: FreeStyle 293F
T15 sequence (P14780 107-449 Q199G): as the sequence (P14780 107-449) above, with Q93G counted along it
Briefly: Inhibition of human MMP-9 mutant Q199G. It is filed as biochemical. On the procedure: as §4, §5

Another experiment concerns the target T16, active hMMP-9(cat)_Y420A (Homo sapiens, UniProt P14780, Y420A).
T16 construct: of the enzyme active domain (Phe107-Pro449) were constructed; His tag (before the propeptide) (N, cleaved yes); made in house; host or cells: FreeStyle 293F
The experiment can be described thus: Inhibition of human MMP-9 mutant Y420A. It is filed as biochemical. Here is the method:
as §4, §5

T11 sequence (P14780 107-449 Y423A): as the sequence (P14780 107-449) above, with Y317A counted along it
T3 sequence (P14780 107-449 Y179A): as the sequence (P14780 107-449) above, with Y73A counted along it
T1 sequence (P14780 107-449 E402Q): as the sequence (P14780 107-449) above, with E296Q counted along it
Chain of active human MMP-9 enzyme active domain (P14780 107-449): as the sequence (P14780 107-449) above
T10 sequence (P14780 107-449 M422I): as the sequence (P14780 107-449) above, with M316I counted along it
T16 sequence (P14780 107-449 Y420A): as the sequence (P14780 107-449) above, with Y314A counted along it
T12 sequence (P14780 107-449 R424T): as the sequence (P14780 107-449) above, with R318T counted along it
T13 sequence (P14780 107-449 F110A): as the sequence (P14780 107-449) above, with F4A counted along it

B1: M91011: SPINK2 mutant active MMP-9-binding peptide, SEQ ID NO: 7 (FIG. 21) (protein)
chain: DPQFGLFSKYRTPNCMMYKYAQCSHKSQPVCGSDMSTYANECTLCMKIREGGHNIKIIRNGPC
modifications: binder
With B1, the “binding to human MMP-9 enzyme active domain E402Q mutant (peak shift)” value in experiment [1] is “do not bind to human MMP-9 enzyme active domain E402Q mutant”. 17 ± 5 nM corresponded to half-maximal inhibition in experiment [2] (IC50). The “IC50 increase compared to wild type” value with active hMMP-9(cat)_Y179A is given as 4.9 times; with active hMMP-9(cat)_D185A, 19.0 times; with active hMMP-9(cat)_F192A it was 5.0 times; in the experiment with active hMMP-9(cat)_P193A, 6.5 times; with active hMMP-9(cat)_Y393A, over 57.6 times; with active hMMP-9(cat)_L397A, 3.5 times. Moreover, the “IC50 increase compared to wild type” value in the experiment with active hMMP-9(cat)_V398A was 4.8 times; with active hMMP-9(cat)_M422I, 2.6 times; in the experiment with active hMMP-9(cat)_Y423A, over 20.0 times; with active hMMP-9(cat)_R424T, 2.7 times. Moreover, the “binding to active human MMP-9 enzyme active domain (peak shift)” value in experiment [3] is given as “bind to the active human MMP-9 enzyme active domain”.

B2: M91005: SPINK2 mutant active MMP-9-binding peptide, SEQ ID NO: 5 (FIG. 19) (protein)
chain: DPQFGLFSKYRTPNCRKRGGPSCQMSYNPVCGSDMSTYANECTLCMKIREGGHNIKIIRNGPC
modifications: binder
On to B2, for which, in [1], the “binding to human MMP-9 enzyme active domain E402Q mutant (peak shift)” value is recorded as “do not bind to human MMP-9 enzyme active domain E402Q mutant”. Further, in experiment [2], half-maximal inhibition (IC50) required 17 ± 7 nM. The “IC50 increase compared to wild type” value with active hMMP-9(cat)_F110A was 4.0 times; with active hMMP-9(cat)_Y179A, 3.2 times; with active hMMP-9(cat)_L187A, 6.7 times; with active hMMP-9(cat)_F192A, over 57.8 times; with active hMMP-9(cat)_Q199G, 2.3 times; with active hMMP-9(cat)_Y393A it was 2.7 times. Moreover, the “IC50 increase compared to wild type” value worked out at 2.2 times with active hMMP-9(cat)_L397A; 2.2 times in the experiment with active hMMP-9(cat)_V398A; 3.1 times in the experiment with active hMMP-9(cat)_Y420A; 2.6 times with active hMMP-9(cat)_M422I; 13.2 times with active hMMP-9(cat)_Y423A. In experiment [3], the “binding to active human MMP-9 enzyme active domain (peak shift)” value is reported as “bind to the active human MMP-9 enzyme active domain”.
